Data taken from paper PMC4908968.

Assays:
[1] = target: Full-length (FL) MMTV integrase (IN), wild type (mouse mammary tumor virus (MMTV)); test: AUC
[2] = target: Full-length (FL) MMTV integrase (IN), wild type (mouse mammary tumor virus (MMTV)); test: SEC

**Q.** Which stoichiometry N [1] does the source give for “Full-length (FL) MMTV integrase (IN), wild type (enzyme)” here?
**A.** 8

**Q.** What about the stoichiometry N [2] of the same substance?
**A.** 2
